Assay results published in the DeepSol protein solubility set.

Assay: soluble on expression in E. coli; label from the status in PepcDB or PDB records

Sequence	soluble on expression in E. coli
MVTDEAGLLSNAQEEVMNGRLRAIRSSHAVEFAVVTLPSIGDAPLEDFTLKLARQWGVGNEKNNNGLLLVLVLDQRRVRFETGYGLEGYLPDGLLSRIIHDRMIPHFRSGNYAEGLSEGVLAVQQVLDGSYDVKPLEHHHHHH	not soluble
MVTFREMDISDYNEVIALWATTENVSLRDADSRPNIEAYLKRNQGLSFVAVSDSLVIGAVLVGTDGRRGYVQHLAVSSDFRGQGIGKSLIQKATDALSRIGISKTHLFVLIENVVAQDFYTKLDWYPRDEIRMFSYNSSSNPEV	not soluble
MVVFVQSRKRWTYSSAHLLVEEYPSKKVDFKEFASKLTEDEINLRVMPIFWVAGHDNAVLSSTISDSTVALLSRWDVIAAMEAVSRYKVTSMYLTFDMYWQILEHPERELEIFEDLYTFKLCEKGLTVQLREKWKEVAGAILREARTS	not soluble
MVVKFTKSEALHKEALEHIVGGVNSPSRSFKAVGGGAPIAMERGKGAYFWDVDGNKYIDYLAAYGPIITGHAHPHITKAITTAAENGVLYGTPTALEVKFAKMLKEAMPALDKVRFVNSGTEAVMTTIRVARAYTGRTKIMKFAGCYHGHSDLVLVAAGSGPSTLGTPDSAGVPQSIAQEVITVPFNNVETLKEALDKWGHEVAAILVEPIVGNFGIVEPKPGFLEKVNELVHEAGALVIYDEVITAFRFMYGGAQDLLGVTPDLTALGKVIGGGLPIGAYGGKKEIMEQVAPLGPAYQAGTMAGNPASMASGIACLEVLQQEGLYEKLDELGAMLEKGILEQAAKHNIDITLNRLKGALTVYFTTNTIEDYDAAQDTDGEMFGKFFKLMLQEGVNLAPSKYEAWFLTTEHTKEDIEYTIEAVGRAFAALADNK	not soluble
MVYKPLEASDRTELRALQSDRLQRIVTHAHENVPFYREKLDAAGVSPEDIQSIDDITKLPMTTKEDFRDEYPDGLFAVDDEEVARIHASSGTTGKPKIVSYTDDDLDTWSEVVARSLAASGTEAGDTVQNAYGYGLFTGGLGIHYGTEELGASVVPIGSGQTQRQVELMTDLESDVFTCTPSYALYLAETAEEMGHDPRDLPISTIIFGAEPCTDPMREEIEERLGVDGIDIYGLSEIIGPGVSCECHEAKDGLHIWEDHFYPEVIDPHTKEPVEEGEEGELVLTTLTKEALPVFRYRTGDLTTLNYDECACGRTMVRMDNVTGRTDDLLIVRGVNLYPSEIEHAVLDIDGVAPHYRIDLYKEDNLDILELTIERTAEQGPGDKALEDEIIERLENVLAFTPDELELVAPGSIERTQVGKVKRVYDHRD	not soluble
MVYRCTGCGQSQPKWSGQCGGCGQWNTLVEEIEAPAVGRRRAGYAGAAEGSMPVSLAEVSREDLSRVTSGLGELDRVLGGGVVPGSAILLGGDPGIGKSTLLLQTLAYLGKSARTLYVTGEESLSQVSLRAHRLGLDGHGIQALAETSLERILDTAERHKPEVLVVDSIQTVYSEALQSAPGSVGQVRECSAQLVRYAKQSSTTVFLVGHVTKEGALAGPRVLEHMVDTVLYFEGDASSRYRVVRSFKNRFGAVNELGVFAMTETGLKEVRNPSAIFLSRGDEDMPGSIVTVTREGSRPLLVEVQALVDESHLQSPRRLVVGMEMNRLAMLLAVLHRHGGVPVAAQDVFVNLVGGVRLTETAGDLAIACAVVSSFRDRPVPGEWVIFGELGLNGEIRPVPNGEERLREAAKHGFKYALVPAKNAPKQGVPGVSIIAARNLREAINALLEHHHHHH	soluble
MWFKNLTLYRFNKPFSIETEALETALADFTFSPCGSQDVSKFGFSNALGKKGSTLVHSANNRHLICVTKEEKILPAQVIKESLEEKVAQIEDEENRKLAKKEKDALKDEIITSLLPRAFSRRSQTRALILPELEMILVDSSSATKAEELLALLRKALGSLPVIPLSFKAPIESQLTEWLKNGSAPLPFEMQDEAELKSAADEGGIVRFKQQDLKEDEVLAHLETGKEVHKLALHFGQSIALLLQSDASVKRLKFSEEFRAGNDELGNEDPMARLDADFALMGSELVALMHALVSALGGIEETQA	soluble
MWKWETENDAKGVVVIAHNILEHTGRYAYVITMLRRNGYHVIMGDLPGQGQTSRAQKGQIDDFNTYHENILEWIKIANEYKIPTFVLGVGLGGLIILNLLEKTELPIEGILLFSPMLELKRDYKGRKNKLISNVGKISKDTRFKVGITPQDLTRNDEIIEETANDGLMLKKVTYSWYNLINEKMKETMDHIRDIKPISALIMYGTNDKILETQSINEMKDKLKSKEMYFKVWDGLYHEIHNEPERDLVMRYVLSFLNNSVNTMGFIVNEEEIEDI	not soluble
MWLRDPFPRLYPDGDFQMACDRFFGNPYDSDNWVNGGFTYVRSNNRSIEFYKFWHKSRLDYPDLHDQDVFNRIKHEPFISEIGIQMRFFDTVYFGGFCQTSRDINLVCTMHANCCIGLDKKLHDLNLVLDDWRKYLSLSEPVQNTTWSVPMKCLED	not soluble
MYDMINAKYLGKLIFLDFGQTITSLEETSDNSTFFIADEFGNFGSHYVGVVLEQVRSFNTVVILSYQSFANLRNIGGDNFKSQIINNTSTLIAHRLIDMMEAEEVANLYGVDITCASEIKSLKVGQALVRSISSYYGEIKDWLVQQIDKS	soluble
MYEAKDYKSDQYVRWCPGCGDHAVVVTLQKAMAEIGIPPHQTAVMSGIGCSSRLPYYMNTYGFHTIHGRGAAIATGVKTANPELSVWLASGDGDSLAIGGNHFIHAVRRNIDINAVLFNNRIYGLTKGQYSPTSARGFVSKSSPYGTVEDPFIPAELVLGARGNFFARAIDVDMKTLQECFVASARHRGFAVTEVLVNCVIFNDGTHKDRSHKDIRADRTITLRHGEKMIFGANRDKGIVLEGLKLRAVTIGEDGYTLDDVLVHDKYEQDVTLHHLLAMMGYTDDSMPIALGVIRDVEAPCYDRAVEAQIEEIQQKNPIRKLHDLLIQGDVWEIK	not soluble
MYELTEDFKLRKITKYELDGIDEREDLLVIPPSSKAGPCGNACLFCYLLQNPPEMIYKVPRHDTLNDPDLENRIRYARKHYDLWIRVTDTSGNIKFDENRIKSLYDAGLDEIQISVHTTKKDVRARLMRNRQAGKLIDLLPLVAKHFRTIADIILTPGFNVEDIGEIIEDLDSMGVHEVRLFPVGVTRYNKFGVRPLTREELSYVKGIALEKDKELAIKVVIPPIFLALLGEFTTGLEPFDIEPDFPTYIFTGELAYQEMKRLFPRVNVIMVKNEFFGGNIGSAGLLTGRDILREVEKLPEVDLGLIILPELMFYGDMTLDGWRRQELFSKILIEKGYIVETALEPTEIPRVIEKVTL	not soluble
MYELYTLLAEYYDTIYRRRIERVKAEIDFVEEIFKEDAKREVRRVLDLACGTGIPTLELAERGYEVVGLDLHEEMLRVARRKAKERNLKIEFLQGDVLEIAFKNEFDAVTMFFSTIMYFDEEDLRKLFSKVAEALKPGGVFITDFPCWFYGGRDGPVVWNEQKGEEKLVIMDWREVEPAVQKLRFKRLVQILRPNGEVKAFLVDDELNIYTPREVRLLAEKYFEKVKIYGNLKRELSPNDMRYWIVGIAKSF	soluble
MYFEGYGYRGSTFEQTYRCYPASFIDKPQLETGDKIIMPPSALDRLASLHIEYPMLFEVHNAAAERTSHCGVLEFIAEEGMIYMPYWMMQNLLLTEGDMVFIKNANLPKGTYVKLQPHTTDFLDISNPKAILEKTLRNYSCLTTGDSIMVAYNNKKYYIDIVETKPSNAISIIETDCEVDFAPPLDYKEPERQKAAVPPSTAPTAEEAAEEEPKFIPFTGPGRRLDGKAPKDKDVSASSPAKRQANATNSVQPSTASTSQSSSSRKTTEKLVFGPGGNRTSKETEKVPEKEPKEDPKKDEPKFSAFTGRKYSLKG	soluble
MYGSEGGAMRIVAGVGENRNMERAASLADFEVDLVHSEEEFIEELRRGAAAYVRGSLPAANIMAELKKGGPLNRASWIEVGANGFLLAPVGIDEGRTVDDRFKIAVSASEFLRKTGEEPRVGVISGGRRGDLGRSPEVDRSIHEGEFLTSMIKDKYRVRHYHILIEEAVADGCNVIIAPDGITGNLIFRSLVLVGTARSYGAVALGFDGIFVDTSRSQTAEGYLRALKFAHWLARGWNEDNE	soluble
MYGYYSIGELTKEFSITARTLRYYEEEGLLVPCRHGSARFYTQTDRHKLKQILRAKRVKFSLSEISEMLSMVGKPPTDEKKLKELIAGVNKKRADLQQMQRDIDDFLHDLERIEETLFESLAELGVNR	not soluble
MYHNSSQKRHWTFSSEEQLARLRADANRKFRCKAVANGKVLPNDPVFLEPHEEMTLCKYYEKRLLEFCSVFKPAMPRSVVGTACMYFKRFYLNNSVMEYHPRIIMLTCAFLACKVDEFNVSSPQFVGNLRESPLGQEKALEQILEYELLLIQQLNFHLIVHNPYRPFEGFLIDLKTRYPILENPEILRKTADDFLNRIALTDAYLLYTPSQIALTAILSSASRAGITMESYLSESLMLKENRTCLSQLLDIMKSMRNLVKKYEPPRSEEVAVLKQKLERCHSAELALNVITKKRKGYEDDDYVSKKSKHEEEEWTDDDLVESL	not soluble
MYIECEGILKRYFKDVPEIIKRACKFAREKLGEGSHGFSHTLRVLAIALHIGSKENADLEILALAALLHDIARPLEDKGVIRDHAIEGAKIAKEFLSNYEKVEEVAHAIASHRFSNDVEPRTLEAKILSDADKIDALGAIGIARVFIYSCEKERSIEDSIKHFEEKILKLKDLMYTKTGKEIAEKRHKVVKWYVETLKSELREFLYLEHHHHHH	soluble
MYKQIILACDGSEHALRAAEHATYIAKCSEETNVEVVYVVDNRTAKSDIIQGQTDLETISASRKDKLKEIEGLLKKENISYTITILHGDPGDTIVQYVNTGDIDLVIAGSRGLNTLQEMVLGSVSHKIAKRVKCPVMIVK	not soluble
MYKTIIMPVDVFEMALSDKAVRHAEFLAQQDGVIHLLHVLPGSASFTMSRFTADLRRFEEHLQHEAETRLQTMVSHFSIDPSRIKLHVRFGSVRDMVNELASEINADVVVIGSRNPSISTHLLGSNASSVIRHAHIPVMVVR	not soluble
MYLKARQDELTESTIQSQEYRLEAFEQFCREEGIENLNDLSGRDLYAYRVWRREGNGKGRDEIEPITLRGQLATVRSFLRFAAEVDAVPEDLRTKVPLPTILEHHHHHH	not soluble
MYLKETLDQFTSINNILKLLKKSPGFNKYCIQERLPKETVITSDKRRKYIYIIEDGFMKLVFEGTNKHNFSYILQKGAFPHLPVYTEDIPKHMMLIALTDVVWWKIEFQFFKEMMELEDPRNYIMLHQLAETRRRLYIIAVQEKLSSRESIYFSLNTMIDYGLRVSEKAVELPKFLTYQILADNSNTSKSYTSKVLSNLREKGILESQKKPWRINDVQKLQELIDAEALLAIL	not soluble
MYRAIGMIELTSVARGIYATDQMLKIAYVDVVSATPVCPGKYIAIVQGDVAAVESSISTGIAISGEYLVDSFVLPNVHEGIFPAITATTMPDGTGALGIMESFSMASMITAADAALKAADVQALELRLGSGLGGKAYFTFTGDVAAVEAGIEAGKAIAMEKGLLVDIEVIPSPSDRLWTSLY	soluble
MYRDRVRLPSLLDKVMSAAEAADLIQDGMTVGMSGFTRAGEAKAVPQALAMRAKERPLRISLMTGASLGNDLDKQLTEAGVLARRMPFQVDSTLRKAINAGEVMFIDQHLSETVEQLRNHQLKLPDIAVIEAAAITEQGHIVPTTSVGNSASFAIFAKQVIVEINLAHSTNLEGLHDIYIPTYRPTRTPIPLTRVDDRIGSTAIPIPPEKIVAIVINDQPDSPSTVLPPDGETQAIANHLIDFFKREVDAGRMSNSLGPLQAGIGSIANAVMCGLIESPFENLTMYSEVLQDSTFDLIDAGKLRFASGSSITLSPRRNADVFGNLERYKDKLVLRPQEISNHPEVVRRLGIIGINTALEFDIYGNVNSTHVGGTKMMNGIGGSGDFARNAHLAIFVTKSIAKGGNISSVVPMVSHVDHTEHDVDILVTEQGLADLRGLAPRERARVIIENCVHPSYQAPLLDYFEAACAKGGHTPHLLREALAWHLNLEERGHMLAG	soluble
